Measurements published in PMC10575581 (Science Advances, 2023).

Target: the molecule itself
Assay: cryo-EM structure; Der^Δ-p97^Δ complex from Sf9 with ATP·BeFx added through the whole purification; closed class 3.65 Å and open (state U) class 4.51 Å

B1: human Derlin-1 Δ215–239, C-terminal twin strep tag (Sf9) (natural protein, UniProt Q9BUN8-1 1-251, looked up)
chain: MSDIGDWFRSIPAITRYWFAATVAVPLVGKLGLISPAYLFLWPEAFLYRFQIWRPITATFYFPVGPGTGFLYLVNLYFLYQYSTRLETGAFDGRPADYLFMLLFNWICIVITGLAMDMQLLMIPLIMSVLYVWAQLNRDMIVSFWFGTRFKACYLPWVILGFNYIIGGSVINELIGNLVGHLYFFLMFRYPMDLGGRNFLSTPQFLYRWLPSRRHNWGQGFRLGDQ
notes: Derlin-1, human, cDNA NCBI NM_024295.6, whole protein with residues 215 to 239 (loop between TM6 and the SHP box) deleted; a PreScission Protease cleavage site stands before the C-terminal twin strep tag; Cleavage of the tag is not described; also called Der^Δ; truncated Derlin-1; source: Sf9, baculovirus (pFastBac-Dual), coexpressed with p97 Δ1–20, co-purified (Strep-Tactin, SEC in GDN); not …
Question: B1 was tested. Which “stoichiometry N” value did it give?
Answer: 4
